We go through 17 molecules from patent US20090123452A1 (TORREY PINES INSTITUTE FOR MOLECULAR STUDIES AND CATALYST …, published 2009).

Residue numbers refer to the chain shown, from its start. Numbers in names are those of the source. Read-outs that look alike come from different tables or passages of the source.

The target in assay [1] is T1, mutant antithrombin III AT3/SLGR-KI (human, UniProt P01008 33-464).
T1 construct: RCL residues IAGRSL are replaced by SLGRKI; also called AT3 (AT3/SLGR-KI)
T1 chain: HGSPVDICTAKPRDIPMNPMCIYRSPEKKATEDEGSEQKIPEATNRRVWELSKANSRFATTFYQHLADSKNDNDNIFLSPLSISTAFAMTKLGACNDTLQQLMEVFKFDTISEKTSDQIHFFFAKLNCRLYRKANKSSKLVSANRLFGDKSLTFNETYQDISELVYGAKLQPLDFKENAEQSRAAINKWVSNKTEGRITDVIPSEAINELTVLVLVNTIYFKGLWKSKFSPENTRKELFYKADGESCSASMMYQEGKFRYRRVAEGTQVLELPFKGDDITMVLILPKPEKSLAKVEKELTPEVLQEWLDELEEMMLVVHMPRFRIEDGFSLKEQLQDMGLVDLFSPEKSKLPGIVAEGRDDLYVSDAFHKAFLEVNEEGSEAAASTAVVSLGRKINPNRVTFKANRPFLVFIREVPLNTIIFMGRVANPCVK
Description: phage display selection: complex with His-tagged AT3-SLGRKI bait captured by anti-His antibody on plate.

Assay [2] deals with T1, mutant antithrombin III AT3/SLGR-KI. The description is as above.

B1: Mutant MT-SP1 clone CPC-0023085 (phage) (enzyme)
chain: VVGGTDADEGEWPWQVSLHALGQGHFCGASLISPNWLVSAAHCYIDDRGFRYSDPTQWTAFLGLHDQSQRSAPGVQERRLKRIISHPFFNDFTFDYDIALLELEKPAEYSSMVRPISLPDASHVFPAGKAIWVTGWGHTQYGGTGALILQKGEIRVINQTTCENLLPQQITPRMMCVGFLSGGVDSCQGDSGGPLSSVEADGRIFQAGVVSWGDGCAQRNKPGVYTRLPLFRDWIKENTGVSGSSGGGSEGGGSEGGGSEGGGSGGGSGSGDFDYEKMANANKGAMTENADENALQSDAKGKLDSVATDYGAAIDGFIGDVSGLANGNGATGDFAGSNSQMAQVGDGDNSPLMNNFRQYLPSLPQSVECRPFVFSAGKPYEFSIDCDKINLFRGVFAFLLYVATFMYVFSTFANILRNKES
notes: I41F/C122S
With B1, in assay [1], the binding result is “binds”.

B2: Mutant MT-SP1 clone CPC-0025387 (phage) (enzyme)
chain: B1 chain
notes: I41F/C122S
For the molecule B2, in assay [1], the binding result is “binds”.

B3: Mutant MT-SP1 clone CPC-0027484 (phage) (enzyme)
chain: B1 chain with F26I, N90K
notes: N95K/C122S
Consider B3, for which the binding result in assay [2] is “binds”.

B4: Mutant MT-SP1 clone CPC-0025582 (phage) (enzyme)
chain: B1 chain with L165F, V241G
notes: I41F/C122S/L171F/V244G
For B4, the binding result in assay [1] is “binds”.

B5: Mutant MT-SP1 clone CPC-0027706 (phage) (enzyme)
chain: B1 chain with F26I, F92Y, I131V, Q188H, S197I
notes: F97Y/C122S/I136V/Q192H/S201I
For B5, the binding result in assay [1] is given as “binds”.

B6: Mutant MT-SP1 clone CPC-0028341 (phage) (enzyme)
chain: B1 chain with F26T, P167S, Q206L
notes: I41T/C122S/P173S/Q209L
On to B6, for which the binding result in assay [2] is “binds”.

B7: Mutant MT-SP1 clone CPC-0026100 (phage) (enzyme)
chain: B1 chain with I148V, V241G
notes: I41F/C122S/I154V/V244G
With B7, the binding result in assay [1] is “binds”.

B8: Mutant MT-SP1 clone CPC-0028333 (phage) (enzyme)
chain: B1 chain with F26I, T59K, F88L, F92Y, D214V
notes: T65K/F93L/F97Y/C122S/D217V
B8: the binding result in assay [1] is reported as “binds”.

B9: Mutant MT-SP1 clone CPC-0019595 (phage) (enzyme)
chain: B1 chain with F26I, I131T, N158D, T160A, F179L, D214V
notes: C122S/I136T/N164D/T166A/F184(A)L/D217V (chymotrypsin numbering); the STII leader is not counted
B9: in assay [1], the binding result is listed as “binds”.

B10: Mutant MT-SP1 clone CPC-0025720 (phage) (enzyme)
chain: B1 chain with F26I, H138R, Q169R
notes: C122S/H143R/Q175R
In the case of B10, the binding result in assay [1] was “binds”.

B11: Mutant MT-SP1 clone CPC-0025366 (phage) (enzyme)
chain: B1 chain with D8E, T93P, T139I
notes: D23E/I41F/T98P/C122S/T144I
In the case of B11, the binding result in assay [1] is recorded as “binds”.

B12: Mutant MT-SP1 clone CPC-0027399 (phage) (enzyme)
chain: B1 chain with F26I, F94L
notes: F99L/C122S
As for B12, the binding result in assay [1] was “binds”.

B13: Mutant MT-SP1 clone CPC-0024153 (phage) (enzyme)
chain: B1 chain with A121T, V241G
notes: I41F/C122S/A126T/V244G
With B13, the binding result in assay [1] is reported as “binds”.

B14: Mutant MT-SP1 clone CPC-0025876 (phage) (enzyme)
chain: B1 chain with L165F
notes: I41F/C122S/L171F
Consider B14, for which the binding result in assay [1] was “binds”.

B15: Mutant MT-SP1 clone CPC-0028017 (phage) (enzyme)
chain: B1 chain with F26I, D214V
notes: C122S/D217V
Consider B15, for which the binding result in assay [1] is reported as “binds”.

B16: Mutant MT-SP1 clone CPC-0026232 (phage) (enzyme)
chain: B1 chain with L37M, V124D, Q218L
As for B16, the binding result in assay [1] was “binds”.

B17: Mutant MT-SP1 clone CPC-0027797 (phage) (enzyme)
chain: B1 chain with F26I, H65R, P126S, D214V
notes: H71R/C122S/P131S/D217V
B17: the binding result in assay [1] is given as “binds”.
